Two substances from patent US20100291638 can be followed below.

The target in one data set is Tth DNA polymerase (UniProt P52028). As to conditions: reverse transcription, manufacturer's conditions.
In data set [1] the test system is T1, DNA polymerase 3173 (uncultured hot spring virus (Octopus Spring)).
T1 sequence: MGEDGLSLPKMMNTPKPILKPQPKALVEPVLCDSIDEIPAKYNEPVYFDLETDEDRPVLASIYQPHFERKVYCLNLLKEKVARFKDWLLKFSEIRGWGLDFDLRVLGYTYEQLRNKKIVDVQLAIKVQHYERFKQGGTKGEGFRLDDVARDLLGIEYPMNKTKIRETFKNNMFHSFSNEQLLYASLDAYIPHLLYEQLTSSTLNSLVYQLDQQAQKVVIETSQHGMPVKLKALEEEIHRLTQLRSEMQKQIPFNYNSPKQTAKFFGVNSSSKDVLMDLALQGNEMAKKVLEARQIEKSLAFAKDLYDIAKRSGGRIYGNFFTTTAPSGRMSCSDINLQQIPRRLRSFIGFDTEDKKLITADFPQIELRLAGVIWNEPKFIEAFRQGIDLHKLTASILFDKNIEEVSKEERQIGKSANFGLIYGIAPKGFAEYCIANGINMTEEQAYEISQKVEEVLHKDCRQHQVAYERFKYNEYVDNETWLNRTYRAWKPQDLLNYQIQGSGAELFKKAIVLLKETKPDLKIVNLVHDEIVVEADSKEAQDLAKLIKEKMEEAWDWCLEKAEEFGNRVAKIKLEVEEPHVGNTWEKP
As to conditions: reverse transcription, 60 C 20 min, MgCl2 and MnCl2.

Data set [2] concerns the target MMLV reverse transcriptase (Moloney murine leukemia virus) (UniProt P03355). As to conditions: reverse transcription, manufacturer's conditions.
For data set [3], the system named is T1, DNA polymerase 3173 (uncultured hot spring virus (Octopus Spring)). As to conditions: Km for primed M13 DNA; 70 C; dNTPs in excess.

UniProt P52028, sequence (P52028 whole entry): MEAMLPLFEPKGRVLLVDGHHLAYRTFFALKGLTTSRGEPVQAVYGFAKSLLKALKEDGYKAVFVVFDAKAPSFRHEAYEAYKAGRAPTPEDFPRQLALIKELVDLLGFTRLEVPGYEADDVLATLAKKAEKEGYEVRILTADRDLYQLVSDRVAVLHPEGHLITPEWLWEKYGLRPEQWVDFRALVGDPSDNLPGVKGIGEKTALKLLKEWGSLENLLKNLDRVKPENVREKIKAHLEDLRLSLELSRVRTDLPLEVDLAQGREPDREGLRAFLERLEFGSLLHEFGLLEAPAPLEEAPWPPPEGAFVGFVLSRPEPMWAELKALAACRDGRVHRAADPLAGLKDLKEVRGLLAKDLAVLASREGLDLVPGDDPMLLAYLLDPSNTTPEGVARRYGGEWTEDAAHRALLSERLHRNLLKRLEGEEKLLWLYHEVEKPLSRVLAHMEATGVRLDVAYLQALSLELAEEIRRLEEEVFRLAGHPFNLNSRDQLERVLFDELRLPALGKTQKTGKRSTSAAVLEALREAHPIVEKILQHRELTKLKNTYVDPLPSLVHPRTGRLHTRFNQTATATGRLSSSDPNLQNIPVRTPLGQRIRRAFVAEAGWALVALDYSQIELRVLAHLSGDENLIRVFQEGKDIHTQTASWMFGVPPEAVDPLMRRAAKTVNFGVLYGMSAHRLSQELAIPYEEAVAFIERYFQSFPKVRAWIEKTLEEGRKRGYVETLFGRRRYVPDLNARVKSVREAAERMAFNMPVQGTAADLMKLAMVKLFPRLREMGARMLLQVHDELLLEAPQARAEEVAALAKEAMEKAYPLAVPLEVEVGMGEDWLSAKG

Turning to poly rA:oligo dT, the activity with Tth DNA polymerase worked out at 0.802 nmol dTTP; in data set [1] it was 1.04 nmol dTTP; in data set [2] it was 1.11 nmol dTTP.
primed single-stranded M13 DNA registered a K half in data set [3] of 5.3 nM.
